In assay [1] the target is biotinylated human FcRn (human) (UniProt P55899). Kind of assay: Biacore SPR, pH 7.4. A general note: In SPR one partner is held on a chip, and binding of the other changes the refractive index at the surface.
Assay [2] has as its target rat FcRn (rat) (UniProt P13599). Kind of assay: Biacore SPR, pH 7.4.
Assay [3] concerns the target biotinylated human FcRn (human) (UniProt P55899). Kind of assay: Biacore SPR, pH 6.0.
The target in assay [4] is rat FcRn (rat) (UniProt P13599). In words: Biacore SPR, pH 6.0.
rat FcRn (rat), sequence (P13599 23-298 limits assumed, chain 1 of 2): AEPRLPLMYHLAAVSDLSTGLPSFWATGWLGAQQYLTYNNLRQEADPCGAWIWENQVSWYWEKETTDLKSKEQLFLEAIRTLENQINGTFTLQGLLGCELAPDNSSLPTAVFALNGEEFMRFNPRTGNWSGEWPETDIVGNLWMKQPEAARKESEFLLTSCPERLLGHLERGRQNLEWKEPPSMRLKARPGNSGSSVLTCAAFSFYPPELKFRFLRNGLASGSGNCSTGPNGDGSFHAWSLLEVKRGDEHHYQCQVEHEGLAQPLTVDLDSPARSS
rat FcRn (rat), sequence (P07151 21-119 limits assumed, chain 2 of 2, further chain): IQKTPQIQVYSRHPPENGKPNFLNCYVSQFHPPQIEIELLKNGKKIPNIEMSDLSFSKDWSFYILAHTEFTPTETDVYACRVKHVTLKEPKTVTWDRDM
The target in assay [5] is biotinylated human FcRn (human) (UniProt P55899). In words: Biacore SPR, pH 7.4, 1000 nM antibody.
Assay [6] addresses rat FcRn (rat) (UniProt P13599). In words: Biacore SPR, pH 7.4, 1000 nM antibody.
Assay [7] deals with biotinylated human FcRn (human) (UniProt P55899). In words: Biacore, biotin-captured hFcRn, pH 6.0.
The target of assay [8] is biotinylated cynomolgus FcRn (cynomolgus) (UniProt Q8SPV9). Kind of assay: Biacore, biotin-captured cFcRn, pH 6.0.
The target of assay [9] is biotinylated human FcRn (human) (UniProt P55899). In words: Biacore, biotin-captured hFcRn, pH 7.4, 1000 nM antibody.
Assay [10] has the same target. Kind of assay: Biacore, biotin-captured hFcRn, pH 8.0, 1000 nM antibody.
Assay [11] addresses biotinylated cynomolgus FcRn (cynomolgus) (UniProt Q8SPV9). Kind of assay: Biacore, biotin-captured cFcRn, pH 7.4, 1000 nM antibody.
Assay [12] has the same target. Kind of assay: Biacore, biotin-captured cFcRn, pH 8.0, 1000 nM antibody.
For assay [13], the target named is FcRn immobilised on the FcRn affinity column (biotinylated cynoFcRn in one experiment, biotinylated hFcRn in another). In words: FcRn affinity chromatography, linear pH gradient; species of the immobilised FcRn not given.
Assay [14] deals with rat FcRn (rat) (UniProt P13599). Kind of assay: Biacore, pH 6.0, apparent KD.
The target of assay [15] is biotinylated human FcRn (human) (UniProt P55899). In words: Biacore SPR, pH 6.0. This is another data set of the same source.
Assay [16] shares this target. Kind of assay: Biacore, pH 6.0, apparent KD.
Assay [17] has the same target. In words: Biacore, biotin-captured hFcRn, pH 7.4.
For assay [18] the target is unchanged. In words: Biacore, biotin-captured hFcRn, pH 8.0.
Assay [19] addresses biotinylated cynomolgus FcRn (cynomolgus) (UniProt Q8SPV9). Kind of assay: Biacore, biotin-captured cFcRn, pH 7.4.
Assay [20] shares this target. In words: Biacore, biotin-captured cFcRn, pH 8.0.
The target is the same in assay [21]. Kind of assay: Biacore, biotin-captured cFcRn, pH 9.0, 1000 nM antibody.
Assay [22] deals with biotinylated human FcRn (p51 subunit residues 24-297 with C-terminal Avi-tag; beta2-microglobulin residues 21-119) (human) (UniProt P55899). Kind of assay: Biacore SPR, pH 6.0.
biotinylated human FcRn (p51 subunit residues 24-297 with C-terminal Avi-tag; beta2-microglobulin residues 21-119) (human), sequence (P55899 24-297 limits assumed, chain 1 of 2): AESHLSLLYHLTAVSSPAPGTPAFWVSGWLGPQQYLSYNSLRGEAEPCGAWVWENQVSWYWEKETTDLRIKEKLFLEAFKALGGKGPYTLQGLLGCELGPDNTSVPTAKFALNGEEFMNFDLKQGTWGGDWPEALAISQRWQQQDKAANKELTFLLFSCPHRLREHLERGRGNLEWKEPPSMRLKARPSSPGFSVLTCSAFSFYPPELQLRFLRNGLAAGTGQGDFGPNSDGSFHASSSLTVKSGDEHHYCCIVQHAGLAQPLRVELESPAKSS
biotinylated human FcRn (p51 subunit residues 24-297 with C-terminal Avi-tag; beta2-microglobulin residues 21-119) (human), sequence (P61769 21-119 limits assumed, chain 2 of 2, further chain): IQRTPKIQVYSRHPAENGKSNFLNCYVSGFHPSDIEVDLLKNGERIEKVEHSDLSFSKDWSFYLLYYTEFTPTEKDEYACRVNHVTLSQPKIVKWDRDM
Assay [23] has the same target. In words: Biacore SPR, pH 7.4, steady state.
Assay [24] addresses biotinylated human FcRn (human) (UniProt P55899). In words: Biacore, pH 6.0.
Assay [25] has as its target rat FcRn (rat) (UniProt P13599). Kind of assay: Biacore, pH 6.0.
The target in assay [26] is biotinylated human FcRn (human) (UniProt P55899). Kind of assay: Biacore, pH 7.4, steady state response.
The target of assay [27] is rat FcRn (rat) (UniProt P13599). Kind of assay: Biacore, pH 7.4, steady state response.
Assay [28] concerns the target biotinylated human FcRn (p51 subunit residues 24-297 with C-terminal Avi-tag; beta2-microglobulin residues 21-119) (human) (UniProt P55899). In words: Biacore; inverse ratio (RU at pH 7.4 over affinity at pH 6.0).
Assay [29] concerns the target Human CD16a (FcγRIIIa V158) with C-terminal HPC4 tag (human) (UniProt P08637). Kind of assay: Biacore, FcγRIIIa V158 captured, steady-state fit, apparent KD.
For assay [30], the target named is biotinylated human FcRn (p51 subunit residues 24-297 with C-terminal Avi-tag; beta2-microglobulin residues 21-119) (human) (UniProt P55899). In words: Biacore; affinity at pH 6.0 (M^-1) over steady state RU at pH 7.4.

The values that follow come from patent US20210024620A1.

biotinylated human FcRn (human), sequence (P55899 24-297 limits assumed, chain 1 of 2): as the sequence (P55899 24-297 limits assumed, chain 1 of 2) above
biotinylated human FcRn (human), sequence (P61769 21-119 limits assumed, chain 2 of 2, further chain): as the sequence (P61769 21-119 limits assumed, chain 2 of 2, further chain) above
Human CD16a (FcγRIIIa V158) with C-terminal HPC4 tag (human), sequence (P08637 17-208 F176V): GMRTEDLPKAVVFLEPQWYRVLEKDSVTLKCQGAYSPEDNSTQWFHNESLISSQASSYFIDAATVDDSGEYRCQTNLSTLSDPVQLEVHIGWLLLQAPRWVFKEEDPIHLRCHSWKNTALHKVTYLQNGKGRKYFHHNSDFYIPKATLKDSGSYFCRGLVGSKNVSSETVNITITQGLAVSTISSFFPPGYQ

mAb1 wildtype (WT) human IgG1 antibody: the Steady State RU in [1] was found to be 4.2 RU; in the assay with rat FcRn (rat) [2], 13 RU; in assay [5], 4.3 RU; with rat FcRn (rat) [6], 12.2 RU; in assay [9], 0.2 RU; in [10] it was 0.2 RU. The Steady State RU in assay [11] turned out to be 1.5 RU; in assay [12] it was 1.4 RU. Also, the Kd was determined as 2380 nM in assay [3], 207 nM in the assay with rat FcRn (rat) [4], 1300 nM in assay [7] and 660 nM in assay [8]. The substance also showed a FcRn affinity column elution pH in assay [13] of 7.37 pH.

For the substance mAb1 T307F (antibody), the Kd in the assay with rat FcRn (rat) [4] and with rat FcRn (rat) [14] was 131 nM in each case. Moreover, the Steady State RU was 4.9 RU in assay [5] and 21.9 RU in the assay with rat FcRn (rat) [6]. Also, the FcRn affinity column elution pH in [13] was determined as 7.61 pH.

As to mAb1 T256E (antibody), the Steady State RU in [1] amounted to 4.5 RU; with rat FcRn (rat) [2] it was 17 RU; in assay [5], 4.8 RU; with rat FcRn (rat) [6], 23 RU. The Kd in assay [3] was greater than 3000 nM; with rat FcRn (rat) [4], 113 nM; in the assay with rat FcRn (rat) [14], 113 nM. In assay [13], this substance registered a FcRn affinity column elution pH of 7.63 pH.

Regarding “mAb1 N434F (antibody; other documents disagree on this pair)”, the figures for the Steady State RU in [1] and in assay [5] were 22.2 RU and 20.1 RU, respectively. Besides, the Kd in assay [15] and in [16] was 165 nM throughout.

Regarding mAb1 T307Q (antibody), the Steady State RU stood at 6.6 RU in [1], 31.3 RU with rat FcRn (rat) [2], 6.4 RU in [5] and 24.3 RU with rat FcRn (rat) [6]. For the same substance, the Kd is greater than 3000 nM in assay [3]; 5720 nM in assay [15]; 58 nM with rat FcRn (rat) [4]; 5720 nM in [16]; 58 nM with rat FcRn (rat) [14]. Besides, the FcRn affinity column elution pH in assay [13] stood at 7.86 pH.

Turning to mAb1 T307A (antibody), the Kd in the assay with rat FcRn (rat) [4] and in the assay with rat FcRn (rat) [14] was 132 nM each time. Besides, the Steady State RU was 5.2 RU in [5] and 23.1 RU in the assay with rat FcRn (rat) [6]. Moreover, in [13], the FcRn affinity column elution pH is 7.61 pH.

Turning to mAb1 Y436W (antibody), the Kd with rat FcRn (rat) [4] and in the assay with rat FcRn (rat) [14] was 1140 nM throughout. The values for the Steady State RU (in assay [5]; with rat FcRn (rat) [6]) were 3.7 RU and 10.3 RU, respectively. Further, the FcRn affinity column elution pH in assay [13] was determined as 7.39 pH.

As to mAb1 N434P (antibody), the Kd with rat FcRn (rat) [4] and in the assay with rat FcRn (rat) [14] was 194 nM each time. In addition, the Steady State RU in [5] was 3.5 RU; with rat FcRn (rat) [6], 4.3 RU. Moreover, the FcRn affinity column elution pH in assay [13] was determined as 7.56 pH.

For mAb1 Y436H (antibody), the Kd in the assay with rat FcRn (rat) [4] and with rat FcRn (rat) [14] was 131 nM in each case. Further, the results for the Steady State RU (in assay [5]; with rat FcRn (rat) [6]) were 3.6 RU and 16.3 RU, respectively. Also, in [13], the FcRn affinity column elution pH came to 7.33 pH.

With mAb1 M252Y (antibody), the Steady State RU with rat FcRn (rat) [2] turned out to be 50.5 RU; with rat FcRn (rat) [6] it was 57.7 RU. The Kd in assay [3] was greater than 3000 nM; in [15], 3100 nM; with rat FcRn (rat) [4], 25 nM; in [16], 3100 nM; with rat FcRn (rat) [14], 25 nM. This substance yielded a FcRn affinity column elution pH in assay [13] of 7.88 pH.

Take mAb1 T256D (antibody): the Steady State RU with rat FcRn (rat) [2] was determined as 23.2 RU; in the assay with rat FcRn (rat) [6] it was 30.4 RU. Moreover, the Kd in assay [3] is greater than 3000 nM; in assay [15], 6700 nM; with rat FcRn (rat) [4] it was 86 nM; in [16], 6700 nM; with rat FcRn (rat) [14], 86 nM. Besides, the FcRn affinity column elution pH in [13] is 7.82 pH.

For the substance “mAb1 YEWY (M252Y/T256E/T307W/N434Y) (antibody)”, the Kd in [17] stood at 61 nM; in assay [18], 1900 nM; in assay [8] it was 6.1 nM; in [19], 63 nM; in assay [20] it was 1300 nM. Moreover, the Steady State RU in assay [9] stood at 141 RU; in assay [10] it was 245 RU; in assay [11], 162 RU; in assay [12], 303 RU; in assay [21], 5.4 RU.

As to mAb1 Y436N (antibody), the Kd in the assay with rat FcRn (rat) [4] and with rat FcRn (rat) [14] was 233 nM each time. For the same substance, the figures for the Steady State RU (in [5]; with rat FcRn (rat) [6]) were 3.6 RU and 17.4 RU, respectively. The FcRn affinity column elution pH in assay [13] was found to be 7.22 pH.

On to mAb1 T307M (antibody), for which the Kd with rat FcRn (rat) [4] and in the assay with rat FcRn (rat) [14] was 279 nM each time. Further, the figures for the Steady State RU (in [5]; with rat FcRn (rat) [6]) were 4.4 RU and 15.3 RU, respectively. In [13], this substance had a FcRn affinity column elution pH of 7.4 pH.

On to mAb1 YTTY (M252Y/N434Y) (antibody), for which the Steady State RU came out at 54.1 RU in assay [1]; 67.9 RU with rat FcRn (rat) [2]; 125 RU in [9]; 188 RU in [10]; 147 RU in assay [11]; 238 RU in assay [12]. In assay [21], this substance displayed a Steady State RU of 1 RU. Also, the Kd is 8.32 nM in assay [15]; 0.26 nM with rat FcRn (rat) [4]; 65 nM in [17]; 3300 nM in assay [18]; 20 nM in [8]; 83 nM in [19]. Further, the Kd in assay [20] was determined as 1300 nM. Moreover, the Ka in assay [22] came out at 1.2e+08 M⁻¹. In addition, the Steady State Binding, pH 7.4 (RU) in assay [23] came out at 54.1 RU.

Consider mAb1 E380C (antibody), for which the Kd with rat FcRn (rat) [4] and in the assay with rat FcRn (rat) [14] was 6310 nM throughout. For the same substance, the Steady State RU in assay [5] is 5.7 RU; with rat FcRn (rat) [6] it was 27.7 RU. Further, the FcRn affinity column elution pH in assay [13] amounted to 7.18 pH.

Usually koff stands for the rate constant with which the complex falls apart. By kon is commonly meant a measure of how fast the partners come together. Low readings indicate slower complex formation, high ones faster complex formation. “mAb1 YDQN (M252Y/T256D/T307Q) (antibody)”: the results for the koff (in [24]; with rat FcRn (rat) [25]) were 0.028 s⁻¹ and 0.0003 s⁻¹, respectively. Besides, the kon in assay [24] is 250000 M⁻¹ s⁻¹; with rat FcRn (rat) [25], 5000 M⁻¹ s⁻¹. For the same substance, the Ka in assay [22] stood at 8.7e+06 M⁻¹. Moreover, the results for the Kd (in assay [16]; in the assay with rat FcRn (rat) [14]; in [29]) were 115 nM, 5.1 nM and 1060 nM, respectively. Besides, the Steady State Binding, pH 7.4 (RU) in assay [23] worked out at 19.8 RU. In addition, the figures for the Steady State RU (in assay [26]; in the assay with rat FcRn (rat) [27]) were 19.8 RU and 65.2 RU, respectively. Besides, the Ratio (pH 6.0/pH 7.4) in assay [28] was determined as 2.28e-06; in assay [30], 439000. The substance also returned a FcRn affinity column elution pH in assay [13] of 8.51 pH.

In the case of mAb1 T307W (antibody), the Steady State RU worked out at 21.9 RU in the assay with rat FcRn (rat) [2] and 19.2 RU with rat FcRn (rat) [6]. For the same substance, the Kd in assay [3] was greater than 3000 nM; in assay [15], 8740 nM; with rat FcRn (rat) [4] it was 111 nM; in [16], 8740 nM; with rat FcRn (rat) [14], 111 nM. The substance further yielded a FcRn affinity column elution pH in assay [13] of 7.75 pH.

Turning to “mAb1 N434Y (antibody; other documents disagree on this pair)”, the koff in [24] stood at 0.05 s⁻¹; in assay [3], 0.05 s⁻¹; in assay [15], 0.052 s⁻¹. Besides, the kon in assay [24] stood at 360000 M⁻¹ s⁻¹; in assay [3] it was 360000 M⁻¹ s⁻¹; in assay [15], 359000 M⁻¹ s⁻¹. For the same substance, the Steady State RU in [1] was 25.5 RU; in assay [5], 22.6 RU. Further, the Kd in assay [15] and in assay [16] was 137 nM throughout.
